# From the supplement of paper PMC9170038
# Assays:
# MS2 coat protein = experiment: apparent KD of MS2 coat protein; higher = weaker reporter binding; details: Eterna round: R107
# Procedure: (§1)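 RNA-MaP round R107: designed RNA switches with theophylline, tryptophan, arginine or FMN aptamers are transcribed on-chip within common flanks. They are titrated with SNAP-549-labelled MS2 coat protein in RNA-MaP buffer (100 mM Tris pH 7.5, 80 mM KCl, 4 mM MgCl2), without ligand or with the indicated ligand. Median apparent KD per design.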
# [1] = test system: K4 kissing-loop RNA reporter; experiment: apparent KD of K4 kissing-loop reporter; higher = weaker reporter binding; details: Eterna round: R107;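 note: bound reporter read as fluorescence of individual clusters on recovered sequencing chips by microscopy, with normalized cluster intensities fitted with a binding model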
# Procedure: as §1, with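 “a labelled K4 kissing-loop RNA reporter” for “SNAP-549-labelled MS2 coat protein”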
# [2] = input ligand: theophylline 20 uM
# [3] = input ligand: tryptophan 2.4 mM
# [4] = input ligand: theophylline 2 mM
Sequence,apparent KD of MS2 coat protein (MS2 coat protein; input ligand: arginine 13.2 mM) [nM],apparent KD of MS2 coat protein (MS2 coat protein; [2]) [nM],apparent KD of MS2 coat protein (MS2 coat protein; [3]) [nM],apparent KD of MS2 coat protein (MS2 coat protein; input ligand: none) [nM],apparent KD of MS2 coat protein (MS2 coat protein; [4]) [nM],apparent KD of K4 kissing-loop reporter ([1]; input ligand: FMN 200 uM) [nM],apparent KD of K4 kissing-loop reporter ([1]; input ligand: arginine 13.2 mM) [nM],apparent KD of K4 kissing-loop reporter ([1]; input ligand: none) [nM],"apparent KD of K4 kissing-loop reporter [1, 2] [nM]","apparent KD of K4 kissing-loop reporter [1, 3] [nM]"
AACCGAGGCUAUCCUCUCCGACUAUGUGAUACCAGAAUAAUUUUAUUCCCUUGGCAGCAUGACAUGAGGAUCACCCAUGUCUCUU [SSTheo A #10],16,18,15.9,–,–,–,–,–,–,–
AAGCUGGGUGUAAAAUAAAUAAUCACUGAUACCAGACUAUGAGAUGUCCCUUGGCAGCAGAAACAUGAGGAUCACCCAUGUAAUA [JR_Nu_ExcTheophyA_Sub027],21.4,25.5,27.1,–,–,–,–,–,–,–
AAGGGAGAAUCAGAUACCAGAGUAAGAUGGCAUGAUAAUUACAUGAGGAUCACCCAUGUACUCCCUUGGCAGCUGACAAUAUAUU [Exclusion Theophylline B GF 18],12.5,13.2,10.3,–,–,–,–,–,–,–
AAGGUGAUCCCAGAUACCAGCUUAACAUGAGGAUCACCCAUGUAUGGGACGAAAGUCCCGGGCCCUUGGCAGCUGGGUUGCCAAG [SSTheo B #16],43.6,427,170,224,64.9,–,–,–,–,–
AAGGUGAUCCGUGAUACCAGCUCAACAUGAGGAUCACCCAUGUAACGGACGAAAGUCCGGAGCCCUUGGCAGCACGGUAAUAAUA [(M)'-(Theo1)-(Ms2)-(Theo2)-(M'')_Design2b],10.4,15.1,11.6,–,–,–,–,–,–,–
AAGGUGAUCCGUGAUACCAGCUCAACAUGAGGAUCACCCAUGUACGGGACGAAAGUCCCGGGCCCUUGGCAGCACGGUUGCCAAG [SSTheo B #20],53.2,239,109,89.8,93.7,–,–,–,–,–
AAGUCAGGAGGCGAUACCAGUUACGACAUGGCCAGUUACAUGAGGAUCACCCAUGUGCGGAACCCUUGGCAGCGCUUACAUCGCU [theeternabot_exclusion_MS2_Theo_B_1],22.5,47,24.4,–,–,–,–,–,–,–
AAUAAUAAGAAUAACGUACCAGGUGAUCAACGAGGACCGGUACGGCCGCCACUCGAAACAUGAGGAUCACCCAUGUAAUAACAAU [|T'-M'-Trp-Ms2|_Design 2_OL],39.7,107,–,–,124,–,–,–,–,–
AAUAUAUAGACGGCCGCCACUGGAACCAAUACAUGAGGAUCACCCAUGUGAAAAGGAUAGGUUCACAGGACCGGGUCUUCAUGUA [SS Tryp B Tesla 1.3],40.5,33.1,–,–,61,–,–,–,–,–
AAUCAUGAAAACAUGACAUGAGGAUCACUCCGAGGACCGGUACGGCCGCCACUCGCGAGGAGGCGGACAUGAGGAUCACCCAUGU [#02 Tryptophan A Same State],49.2,265,–,–,421,–,–,–,–,–
AAUCAUGGAAACAUGACAUGAGGAUUACUCCGAGGACCGGUACGGCCGCCACUCGCGAGGAGGCGGACAUGAGGAUCACCCAUGU [#03 Tryptophan A Same State],55.8,208,–,–,189,–,–,–,–,–
AAUUCCUCACAUGAGGAUCACCCAUGUGAAGGAGCGCCGAAUAAGGCAGGUAGGUCGCACAUGGAAACCGCUACGAAAGUAGUAA [XArg-A 2 NuV2],18.7,25.3,19.2,19.9,22.1,–,–,–,–,–
AAUUGAAACAGAGGUAUAUACGGACAUUACCGAGGACCGGUACGGCCGCCACUCGACCUAAAACAUGAGGAUCACCCAUGUAGCA [theeternabot_exclusion_MS2_Trp_A_20],12.6,14.2,–,–,13.8,–,–,–,–,–
AAUUUGUCGGGUGAUACCAGCCUCGGCGCGUCUCGCGCUGAACAUGAGGAUCACCCAUGUGGCCCUUGGCAGCACAUGACAAAUC [Raracere],367,557,677,–,–,–,–,–,–,–
AAUUUUAACGGAAGGAGCGUCAAUUAAUACAAACAUGAGGAUCACCCAUGUCAAUACAUGAGACAGGUAGGUCGCCGUUAUUUGA [JR_AAArginiB_Sub024],23.9,28,23.3,22.1,21.7,–,–,–,–,–
UUUGUAUAGGGAAGGAGCGUGAAUGAUAAUGAAUAUAGUGAUGUUAUAUAUAAGAAAGAAUCACAGGUAGGUCGCCCGGAUGAGU [SSArgB.L],–,–,–,–,–,432,323,477,447,356
UUUUGCUAGCGAAACGCUAGCUUAACAGAUACCAGUCGCGAAAGCGACCCUUGGCAGCUGCUGAGUGAUGUUCAGGUGAGAGUUA,–,–,–,–,–,387,221,344,301,312
UUUUUGGUUUAGAGUGAUGUUCCUUGUAUUCGAGGACCGGUACGGCCGCCACUCGAAUAGAAAAGAAAAGAAAAGAGUGAUGUUU [BDazzled - #3 SS Tryptophan A],–,–,–,–,–,308,229,292,356,252
